Results: patent publication US9163071B2

How the values were obtained:
[1] = molecular target: NF-κB p65, endogenous in the cells (activated by TNFα) (human) (UniProt Q04206)
[2] = molecular target: CIAS1-PYD (pyrin only CIAS1 construct) (Homo sapiens (Human)) (UniProt Q96P20)
[3] = molecular target: Myc-ASC (Myc-tagged Apoptosis speck protein containing a CARD) (Homo sapiens (Human)) (UniProt Q9ULZ3)
[4] = molecular target: NF-κB p65, endogenous in the cells (activated by TNFα) (human) (UniProt Q04206); remark: listed apart in the source

Row | Substance | p65 localization pattern after TNFa treatment (immunofluorescence, cells scored) [1] [%] | percentage of ASC expressing cells containing specks (CIAS1-PYD co-expressed) [2] [%] | percentage of ASC expressing cells containing specks (CIAS1-PYD co-expressed) [3] [%] | TNFα-stimulated 3X-NF-κB-Luc reporter (luciferase) [4] [fold]
1 | GFP-POP2 (GFP fusion of pyrin-only protein 2) | 40 | 10 | 10 | 
2 | FLAG-POP2 (POP2 with an N-terminal Flag epitope in pcDNA 3.1) |  |  |  | 3
